Our source for the induction of recombination of a floxed luciferase reporter in 293T cells values is patent US9949464.

The assay addresses green fluorescent protein (GFP), EGFP expressed from pCAG-GFP [GFP: P42212]. The assay is described as follows: cell-based or functional assay.

As to “CRE-DOG (Cre-recombinase Dependent on GFP), GBP2+GBP7 combination: N-CreintG with C-CreintG”, the induction of recombination of a floxed luciferase reporter in 293T cells is 20 to 60 fold.
